Measurements: FireProtDB (doi:10.1111/j.1432-1033.1994.tb18652.x)

Details: Aspergillus oryzae (strain ATCC 42149 / RIB 40), pH 6, Thermal, DSC, sodium acetate calcium acetate 20 mM 2 mM, Mops 50 mM, reversible: yes, whole UniProt chain shown

B1: Guanyl-specific ribonuclease T1 wild type, P00651 (protein)
chain: MMYSKLLTLTTLLLPTALALPSLVERACDYTCGSNCYSSSDVSTAQAAGYQLHEDGETVGSNSYPHKYNNYEGFDFSVSSPYYEWPILSSGDVYSGGSPGADRVVFNENNQLAGVITHTGASGNNFVECT
heat capacity change of unfolding (25 °C): 0.98 kcal/mol/K | unfolding free energy (25 °C): 7.82 kcal/mol | Tm: 57.2 °C | unfolding enthalpy (calorimetric): 96.6 kcal/mol
